Experimental data reported in doi:10.1101/2025.01.26.634952 (bioRxiv, 2025).
Numbering of substitutions follows the chain as printed. Names and notes keep the numbering of the source.

Molecular target: the molecule itself
Experiment: SAXS

B1: SmFtsZ-WT (full-length Streptococcus mutans FtsZ) (natural protein)
chain: MAFSFDAASVQGAVIKVIGVGGGGGNAINRMIDEGVAGVEFIAANTDIQALSSSKAETVIQLGPKLTRGLGAGGQPEIGRKAAEESEEALTEALTGADMVFITAGMGGGSGTGAAPVIARIAKGLGSLTVAVVTRPFGFEGSKRGNYAIEGINELRDEVDTLLIISNNNLLEIVDKKTPLLEALSEADNVLRQGVQGITDLITSPGLINLDFADVKTVMASKGNALMGIGIGTGEERVVEAARKAIYSPLLETTIDGAEDVIVNVTGGLDMTLTEAEEASEIVNQAAGHGVNIWLGTSIDDSMKDEIRVTVVATGVRPDKADQVSGIRRQASSYTQPRAQQQAPSSNSAQPNFERRQNFDFDLNESPEMPAAEPQQTQSSSEPQQSAFGDWNLRRENIARPTEGEIDSQLKMSSFSADSDDDDELETPPFFKNR
Question: Does B1 bind?
Answer: binds

B2: SmFtsZ-R68A (natural protein)
chain: B1 chain with R68A
Question: Does B2 bind?
Answer: binds
